Earlier results on one substance are cited in paper PMC6039870.

The data set has as its target RNH1 (Homo sapiens) (UniProt P13489).
Sequence of UniProt P13489 (P13489 2-461): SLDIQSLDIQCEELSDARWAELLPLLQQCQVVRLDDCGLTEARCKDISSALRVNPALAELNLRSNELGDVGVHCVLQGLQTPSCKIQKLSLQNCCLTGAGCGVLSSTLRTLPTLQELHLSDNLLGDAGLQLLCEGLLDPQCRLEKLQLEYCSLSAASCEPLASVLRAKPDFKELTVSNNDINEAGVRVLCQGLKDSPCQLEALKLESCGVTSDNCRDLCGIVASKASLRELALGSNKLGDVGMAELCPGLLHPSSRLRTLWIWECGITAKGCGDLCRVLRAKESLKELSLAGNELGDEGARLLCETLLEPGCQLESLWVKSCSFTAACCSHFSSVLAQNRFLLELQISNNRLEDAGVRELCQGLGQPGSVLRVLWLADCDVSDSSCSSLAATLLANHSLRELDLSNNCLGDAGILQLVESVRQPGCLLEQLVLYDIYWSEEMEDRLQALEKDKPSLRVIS

What is called Kd is the free concentration of one partner at which half of the binding sites on the other are occupied at equilibrium, for simple one-to-one binding. For RNASE1 (from UniProt P07998), the dissociation constant (Kd) was 0.0003 pM.
